Assay [1] deals with T1, cereblon (E3 ubiquitin ligase).
T1 chain: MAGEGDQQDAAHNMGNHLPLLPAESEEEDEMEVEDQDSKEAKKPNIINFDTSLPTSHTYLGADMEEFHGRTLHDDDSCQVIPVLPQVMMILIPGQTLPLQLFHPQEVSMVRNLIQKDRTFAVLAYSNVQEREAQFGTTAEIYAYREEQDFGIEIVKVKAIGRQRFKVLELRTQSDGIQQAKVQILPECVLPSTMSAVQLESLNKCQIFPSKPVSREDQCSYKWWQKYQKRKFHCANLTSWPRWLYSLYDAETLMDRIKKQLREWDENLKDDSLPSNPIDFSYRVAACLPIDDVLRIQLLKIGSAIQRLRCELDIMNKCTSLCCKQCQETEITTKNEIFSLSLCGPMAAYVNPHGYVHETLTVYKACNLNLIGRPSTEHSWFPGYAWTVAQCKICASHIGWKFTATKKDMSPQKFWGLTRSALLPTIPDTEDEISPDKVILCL
In words: SPR imaging (PlexArray HT), cereblon printed on chip; binary complex of cereblon and PF.

The target is the same in assay [2]. In words: SPR imaging (PlexArray HT), cereblon printed on chip; ternary complex of cereblon, FoxP3 and P-FoxP3 (recombinant FoxP3 present).

One molecule from patent US20250049930A1 (CEDARS SINAI MEDICAL CENTER, published 2025) can be followed below.

Primed or numbered codes have the meaning given here. PEG4′ = polyethylene glycol linker with 4 oxyethylene units

B1: Proteolysis-targeting chimera (PROTAC) targeting FoxP3 (Pomalidomide-PEG4-RDFQSFRKMWPFFAM) (peptide)
peptide: {pomalidomide-PEG4′}-RDFQSFRKMWPFFAM-OH
notes: Conjugate of the P60 peptide with the small molecule pomalidomide; also called P-FoxP3; PROTAC for FoxP3
For orientation: Kd means the free concentration of one partner at which half of the binding sites on the other are occupied at equilibrium, for simple one-to-one binding. Regarding B1, the Kd in assay [1] worked out at 987 nM; in assay [2], 434 nM.
